Measurements reported in PMC2808332, “Expanding the Substantial Interactome of NEMO Using Protein Microarrays” (PLoS ONE, 2010).

B1: Pleckstrin homology domain containing, family J member 1 (natural protein, human, UniProt Q9NW61 1-149, looked up)
chain: MRYNEKELQALSRQPAEMAAELGMRGPKKGSVLKRRLVKLVVNFLFYFRTDEAEPVGALLLERCRVVREEPGTFSISFIEDPERKYHFECSSEEQCQEWMEALRRASYEFMRRSLIFYRNEIRKVTGKDPLEQFGISEEARFQLSGLQA
notes: Pleckstrin homology domain containing, family J member 1, human; also called PLEKHJ1; source: insect cell/baculovirus, purified, spotted (Invitrogen Protoarray v4.0)
B2: NOTCH-regulated ankyrin repeat protein (natural protein, human, UniProt Q7Z6K4 1-114, looked up)
chain: MSQAELSTCSAPQTQRIFQEAVRKGNTQELQSLLQNMTNCEFNVNSFGPEGQTALHQSVIDGNLELVKLLVKFGADIRLANRDGWSALHIAAFGGHQDIVLYLITKAKYAASGR
notes: NOTCH-regulated ankyrin repeat protein, human; also called NRARP; source: insect cell/baculovirus, purified, spotted (Invitrogen Protoarray v4.0)
B3: Odontogenic, ameloblast associated (natural protein, human, UniProt A1E959 16-279, looked up)
chain: APLIPQRLMSASNSNELLLNLNNGQLLPLQLQGPLNSWIPPFSGILQQQQQAQIPGLSQFSLSALDQFAGLLPNQIPLTGEASFAQGAQAGQVDPLQLQTPPQTQPGPSHVMPYVFSFKMPQEQGQMFQYYPVYMVLPWEQPQQTVPRSPQQTRQQQYEEQIPFYAQFGYIPQLAEPAISGGQQQLAFDPQLGTAPEIAVMSTGEEIPYLQKEAINFRHDSAGVFMPSTSPKPSTTNVFTSAVDQTITPELPEEKDKTDSLREP
notes: Odontogenic, ameloblast associated, human; also called ODAM; source: insect cell/baculovirus, purified, spotted (Invitrogen Protoarray v4.0)
B4: Acyl-Coenzyme A binding domain containing 6 (natural protein, human, UniProt Q9BR61 1-282, looked up)
chain: MASSFLPAGAITGDSGGELSSGDDSGEVEFPHSPEIEETSCLAELFEKAAAHLQGLIQVASREQLLYLYARYKQVKVGNCNTPKPSFFDFEGKQKWEAWKALGDSSPSQAMQEYIAVVKKLDPGWNPQIPEKKGKEANTGFGGPVISSLYHEETIREEDKNIFDYCRENNIDHITKAIKSKNVDVNVKDEEGRALLHWACDRGHKELVTVLLQHRADINCQDNEGQTALHYASACEFLDIVELLLQSGADPTLRDQDGCLPEEVTGCKTVSLVLQRHTTGKA
notes: also called ACBD6; source: insect cell/baculovirus, purified, spotted (Invitrogen Protoarray v4.0)
B5: AMME chromosomal region gene 1-like (natural protein, human, UniProt Q6DCA0 1-310, looked up)
chain: MGKRRCVPPLEPKLAAGCCGVKKPKLSGSGTHSHGNQSTTVPGSSSGPLQNHQHVDSSSGRENVSDLTLGPGNSPITRMNPASGALSPLPRPNGTANTTKNLVVTAEMCCYCFDVLYCHLYGFPQPRLPRFTNDPYPLFVTWKTGRDKRLRGCIGTFSAMNLHSGLREYTLTSALKDSRFPPLTREELPKLFCSVSLLTNFEDASDYLDWEVGVHGIRIEFINEKGVKRTATYLPEVAKEQDWDQIQTIDSLLRKGGFKAPITSEFRKTIKLTRYRSEKVTISYAEYIASRQHCFQNGTLHAPPLYNHYS
notes: AMME chromosomal region gene 1-like, human; also called AMMECR1L; source: insect cell/baculovirus, purified, spotted (Invitrogen Protoarray v4.0)
B6: Arginine vasopressin-induced 1 (natural protein, human, UniProt Q5T686 1-147, looked up)
chain: MGTPASVVSEPPPWQAPIEARGRKQASANIFQDAELLQIQALFQRSGDQLAEERAQIIWECAGDHRVAEALKRLRRKRPPRQKPLGHSLHHCSRLRILEPHSALANPQSATETASSEQYLHSRKKSARIRRNWRKSGPTSYLHQIRH
notes: Arginine vasopressin-induced 1, human; also called AVPI1; source: insect cell/baculovirus, purified, spotted (Invitrogen Protoarray v4.0)
B7: Cyclic AMP phosphoprotein, 19 kDa (natural protein, human, UniProt P56211-1 1-112, looked up)
chain: MSAEVPEAASAEEQKEMEDKVTSPEKAEEAKLKARYPHLGQKPGGSDFLRKRLQKGQKYFDSGDYNMAKAKMKNKQLPTAAPDKTEVTGDHIPTPQDLPQRKPSLVASKLAG
notes: Cyclic AMP phosphoprotein, 19 kDa, human; also called ARPP-19; source: insect cell/baculovirus, purified, spotted (Invitrogen Protoarray v4.0)
B8: Centrin EF-hand protein 3 (natural protein, human, UniProt O15182 1-167, looked up)
chain: MSLALRSELVVDKTKRKKRRELSEEQKQEIKDAFELFDTDKDEAIDYHELKVAMRALGFDVKKADVLKILKDYDREATGKITFEDFNEVVTDWILERDPHEEILKAFKLFDDDDSGKISLRNLRRVARELGENMSDEELRAMIEEFDKDGDGEINQEEFIAIMTGDI
notes: Centrin EF-hand protein 3, human; also called CETN3; source: insect cell/baculovirus, purified, spotted (Invitrogen Protoarray v4.0)
B9: Centaurin, alpha 2 (natural protein, human, UniProt Q9NPF8 1-381, looked up)
chain: MGDRERNKKRLLELLRAPDTGNAHCADCGAADPDWASYKLGIFICLNCCGVHRNFPDISRVKSVRLDFWDDSIVEFMIHNGNLRVKAKFEARVPAFYYIPQANDCLVLKEQWIRAKYERREFMADGETISLPGNREGFLWKRGRDNSQFLRRKFVLLAREGLLKYFTKEQGKSPKAVISIKDLNATFQTEKIGHPHGLQITYRRDGHTRNLFVYHESGKEIVDWFNALRAARLQYLKMAFPELPESELVPFLTRNYLKQGFMEKTGPKQKEPFKKRWFALDCHERRLLYYKNPLDAFEQGQVFLGNKEQGYEAYEDLPKGIRGNRWKAGLTIVTPERRFVLTCPSEKEQQEWLESLRGVLSSPLTPLNRLTASTESGRSSR
notes: Centaurin, alpha 2, human; also called CENTA2; source: insect cell/baculovirus, purified, spotted (Invitrogen Protoarray v4.0)

biological target: T1, NEMO (NF-κB essential modulator), tag-free, biotinylated (human, UniProt Q9Y6K9 1-419, biotin (in vitro biotinylation kit, biotin:NEMO molar ratio 9:1)); assay: peptide or protein array; Invitrogen Protoarray v4.0, about 8,400 human proteins spotted on nitrocellulose-coated glass slides; 10 µg biotinylated tag-free NEMO in 120 µl probing buffer (PBS, 0.5 mM DTT, 5 mM MgCl2, 5% glycerol, 0.05% Triton X-100), 4°C, 1.5 h; bound NEMO detected with labelled streptavidin; hits Z-score > 3, hits of the biotin-GST control array subtracted; conditions: both partners purified
T1 construct: NEMO, NF-κB essential modulator, human, 48 kDa; also called biotinylated NEMO; biotin-NEMO; source: E. coli BL21(DE3), purified (glutathione sepharose), GST removed with thrombin, biotinylated in vitro

Q: Does B1 bind?
A: Result: binds

Q: Does B2 bind?
A: Result: binds

Q: Does B3 bind?
A: Result: binds

Q: Does B4 bind?
A: Result: binds

Q: Does B5 bind?
A: Result: binds

Q: Does B6 bind?
A: Result: binds

Q: Does B7 bind?
A: Result: binds

Q: Does B8 bind?
A: Result: binds

Q: Does B9 bind?
A: Result: binds
